Assay results taken from US20130331690A1, “VASCULAR IMAGING AGENTS” (GE HEALTHCARE AS, priority 2010, published 2013).

Legend:
[1] = of the fluorescence efficiency of fluorescein; cited from earlier work
[2] = Optical biodistribution (ADME profile) in MatBIII orthotopic tumor model; type: in vivo, rat; settings: for Biodistribution, Bladder / Biodistribution, Blood / Biodistribution, Eye / Biodistribution, Kidney / Biodistribution, Liver / Biodistribution, Skin / Biodistribution, Spleen / Biodistribution, Tumor: MatBIII tumor-bearing rats, 125 nmol/kg
Description: (§1) In vivo studies were carried out with female Fischer 344 rats or severe combined immunodeficient (SCID) mice, each with an age between 4 and 8 weeks. Animals were housed with non-fluorescent food (Harlan Labs, cat. #TD.97184) and water ad libitum and a standard 12 hour day-night lighting cycle. 1×10^6 cells (100 μL) were injected, using a 27 gauge needle, directly orthotopically into the mammary fat pad of the animal. After allowing 7 days for MatBIII tumor growth (˜1 cm in diameter), animals were injected with test agent and imaged.
The ADME profile of Compound 1 was studied by performing optical biodistribution studies in the MatB III in vivo orthotopic tumor model. Thus, a dose of 125 nmol/kg (volume ˜250-300 μL) was used for the study with an equal volume of PBS used as a negative control. For naïve animals, each tissue type was split into four tubes to ensure sufficient volume for standard preparation. Tissues included blood, bladder/urine, liver, kidney, spleen, eyes, fat, muscle, tumor, and skin collected from the contralateral side from tumor. Using the supernatant from naïve samples (pooled by tissue type), standards were made by adding agent at concentrations of 75 μM, 37.5 μM, 3.75 μM, 0.375 μM and 0 μM, dilutions made with PBS. This yielded a final concentration of 20% injected dose (ID), 10%, 1%, […] and 0. To determine the amount of dye contained in each tissue type, 90 μL of sample or standard was read on a spectrophotometer at settings of 710 excitation/805 Emission.
Samples were adjusted for weight, but there was some sample-to-sample variation.

[3] = Blood clearance vs time, bi-phasic exponential decay curve fit; type: in vivo, rat; settings: rats
MatBIII tumour model = assay: In vivo fluorescence imaging in the rat MatBIII tumour model; settings: fluorescence image 1 hour after iv injection, FIG. 2
Description: as §1
Compound 1 was studied in the MatBIII model described in Example 3. The dose was either 125 or 250 nmol dye/kg body weight. The fluorescence imaging system was comprised of a 12 bit cooled CCD camera (Hamamatsu ORCA), and with a 735 laser source providing the excitation light. The fluorescence signal was filtered with a band pass emission filter set (810 nm centre frequency, 90 nm bandwidth). 50 ms exposure time was used with 2×2 binning.
For immobilisation during the optical imaging procedure, the animals were anaesthetized in a coaxial open mask to surgical level anaesthesia with Isoflurane (typically 2-3%) with oxygen as the carrier gas. During injection and intermediate time point imaging a lighter anaesthesia level was used. The animals were imaged from above, lying on their backs. […]

CC1(C)C(/C=C/C=C/C=C/C=C2\N(CCCCS(=O)(=O)O)c3ccc4ccccc4c3C2(C)C)=[N+](CCCCS(=O)(=O)[O-])c2ccc3ccccc3c21 [ICG, indocyanine green]
Fluorescence efficiency relative to fluorescein [1]: 4%

Bis-Cy7 PEG-31k Conjugate [Compound 1]
Retention of the agent in all of the collected tissues ([2]; 48 h post injection): < 1 % ID/g | Biodistribution, Bladder ([2]; 2 min): 0.00 % ID/g | Biodistribution, Blood ([2]; 2 min): 6.56 % ID/g | Biodistribution, Eye ([2]; 2 min): 1.93 % ID/g | Biodistribution, Kidney ([2]; 2 min): 0.12 % ID/g | Biodistribution, Liver ([2]; 2 min): 0.24 % ID/g | Biodistribution, Skin ([2]; 2 min): 0.00 % ID/g | Biodistribution, Spleen ([2]; 2 min): 0.64 % ID/g | Biodistribution, Tumor ([2]; 2 min): 0.00 % ID/g | Biodistribution, Bladder ([2]; 5 min): 0.23 % ID/g | Biodistribution, Blood ([2]; 5 min): 5.65 % ID/g | Biodistribution, Eye ([2]; 5 min): 0.14 % ID/g | Biodistribution, Kidney ([2]; 5 min): 1.35 % ID/g | Biodistribution, Liver ([2]; 5 min): 0.46 % ID/g | Biodistribution, Skin ([2]; 5 min): 0.56 % ID/g | Biodistribution, Spleen ([2]; 5 min): 0.64 % ID/g | Biodistribution, Tumor ([2]; 5 min): 0.53 % ID/g | Biodistribution, Bladder ([2]; 10 min): 1.24 % ID/g | Biodistribution, Blood ([2]; 10 min): 4.26 % ID/g | Biodistribution, Eye ([2]; 10 min): 1.70 % ID/g | Biodistribution, Kidney ([2]; 10 min): 0.41 % ID/g | Biodistribution, Liver ([2]; 10 min): 0.03 % ID/g | Biodistribution, Skin ([2]; 10 min): 0.00 % ID/g | Biodistribution, Spleen ([2]; 10 min): 1.00 % ID/g | Biodistribution, Tumor ([2]; 10 min): 0.00 % ID/g | Biodistribution, Bladder ([2]; 60 min): 0.86 % ID/g | Biodistribution, Blood ([2]; 60 min): 3.05 % ID/g | Biodistribution, Eye ([2]; 60 min): 0.33 % ID/g | Biodistribution, Kidney ([2]; 60 min): 0.51 % ID/g | Biodistribution, Liver ([2]; 60 min): 1.02 % ID/g | Biodistribution, Skin ([2]; 60 min): 0.05 % ID/g | Biodistribution, Spleen ([2]; 60 min): 0.28 % ID/g | Biodistribution, Tumor ([2]; 60 min): 0.00 % ID/g | Biodistribution, Bladder ([2]; 180 min): 0.00 % ID/g | Biodistribution, Blood ([2]; 180 min): 2.19 % ID/g | Biodistribution, Eye ([2]; 180 min): 0.12 % ID/g | Biodistribution, Kidney ([2]; 180 min): 0.63 % ID/g | Biodistribution, Liver ([2]; 180 min): 2.04 % ID/g | Biodistribution, Skin ([2]; 180 min): 0.06 % ID/g | Biodistribution, Spleen ([2]; 180 min): 0.32 % ID/g | Biodistribution, Tumor ([2]; 180 min): 0.05 % ID/g | Biodistribution, Bladder ([2]; 2880 min): 0.00 % ID/g | Biodistribution, Blood ([2]; 2880 min): 0.02 % ID/g | Biodistribution, Eye ([2]; 2880 min): 0.44 % ID/g | Biodistribution, Kidney ([2]; 2880 min): 0.00 % ID/g | Biodistribution, Liver ([2]; 2880 min): 0.23 % ID/g | Biodistribution, Skin ([2]; 2880 min): 0.00 % ID/g | Biodistribution, Spleen ([2]; 2880 min): 0.00 % ID/g | Biodistribution, Tumor ([2]; 2880 min): 0.61 % ID/g | Blood half-life t1/2α [3]: 4.6 min | Blood half-life t1/2β [3]: 4.33 h | Image contrast of blood vessels and blood-rich tumour (MatBIII tumour model): positive image contrast
